In paper PMC6449974 one finds Kd, stoichiometry N (molar ratio of CypA:CA when saturated) and stoichiometry N data, which are given here for 4 substances.

Where two headings read alike, the source gives them in different places.

In test [1] the target is biotinylated cross-linked CA hexamer (CA A14C/E45C/W184A/M185A) (HIV-1). As to the kind of experiment: SPR; Biacore S200; biotinylated CA K158C or biotinylated CA hexamer immobilised on streptavidin-modified CM5 chip; CypA injected at 1.1-72.8 uM; 10 mM HEPES pH 8, 0.005% Tween 20, 2 mM EDTA, 150 mM NaCl; equilibrium analysis, single experiments. (In general: In SPR one partner is held on a chip, and binding of the other changes the refractive index at the surface.)

In test [2] the target is biotinylated CA K158C (unassembled HIV-1 CA) (HIV-1). Described as above.
Test [3] concerns the target cross-linked self-assembled CA tubes (CA A14C/E45C co-assembled with CA K158C-AF488) (HIV-1). As to the kind of experiment: TIRF fluorescence microscopy binding assay; cross-linked CA tubes held on the cover slip by an anti-p24 antibody; CypA 1-50 uM (1 uM AF647-CypA plus unlabelled CypA) flowed in; 50 mM Tris pH 8, 150 mM NaCl; equilibrium binding model on the CypA:CA molar ratio.

In test [4] the target is native HIV-1 capsid (wild type CA lattice of authentic viral cores) (HIV-1 (pNL4.3-iGFP-ΔEnv and psPAX2)). Description: TIRF fluorescence microscopy binding assay.
Test [5] shares this target. Description: TIRF fluorescence microscopy binding assay. The source holds these as a separate data set.

For orientation: Kd means the free concentration of one partner at which half of the binding sites on the other are occupied at equilibrium, for simple one-to-one binding. For orientation: stoichiometry N means a count of units in the complex or per binding partner. For the substance CypA A25D (enzyme), the Kd came to 20.8 µM in test [1]; 22.6 µM in test [2]; 17.2 µM in test [3]; 8.7 µM in test [4]; 11.2 µM in test [5]. The stoichiometry N (molar ratio of CypA:CA when saturated) in test [3] came to 0.39. Moreover, the stoichiometry N stood at 877 in test [5] (scale: CypA loops occupied at saturation per capsid) and 688 in test [5] (scale: CypA molecules bound per capsid at saturation).
In the case of CypA K27D (enzyme), the Kd in test [1] was determined as 21.7 µM; in test [2], 28.5 µM; in test [3], 17.7 µM. Besides, the stoichiometry N (molar ratio of CypA:CA when saturated) in test [3] turned out to be 0.24.
The corresponding values for CypA K30D (enzyme) are 35.7 µM, 37.9 µM, 17 µM and 0.39.
For the substance CypA P29K (enzyme), the Kd in test [1] is 21 µM; in test [2], 20.6 µM; in test [3], 16.4 µM. Besides, in test [3], the stoichiometry N (molar ratio of CypA:CA when saturated) came out at 0.32.
